The source of these data is US20060272037A1 (JULIUS MAXIMILIANS UNIVERSITAT, published 2006).

Assay [1] concerns the target T1, PTH receptor-cam8 "chameleon" (human).
T1 construct: Stably expressed in HEK293 cells; also tested in membranes made from these cells; also called PTHR-cam; PTHR-cam8
In words: competition ligand binding, receptor stably expressed in HEK293 cells.

The target in assay [2] is T1, PTH receptor-cam8 "chameleon". The assay is described as follows: cell-based or functional assay.

What is called Ki is a dissociation constant, usually derived from enzyme kinetics or from competition with a known ligand. Lower therefore signals higher affinity.

T1 sequence (chain, as listed by the source limits assumed): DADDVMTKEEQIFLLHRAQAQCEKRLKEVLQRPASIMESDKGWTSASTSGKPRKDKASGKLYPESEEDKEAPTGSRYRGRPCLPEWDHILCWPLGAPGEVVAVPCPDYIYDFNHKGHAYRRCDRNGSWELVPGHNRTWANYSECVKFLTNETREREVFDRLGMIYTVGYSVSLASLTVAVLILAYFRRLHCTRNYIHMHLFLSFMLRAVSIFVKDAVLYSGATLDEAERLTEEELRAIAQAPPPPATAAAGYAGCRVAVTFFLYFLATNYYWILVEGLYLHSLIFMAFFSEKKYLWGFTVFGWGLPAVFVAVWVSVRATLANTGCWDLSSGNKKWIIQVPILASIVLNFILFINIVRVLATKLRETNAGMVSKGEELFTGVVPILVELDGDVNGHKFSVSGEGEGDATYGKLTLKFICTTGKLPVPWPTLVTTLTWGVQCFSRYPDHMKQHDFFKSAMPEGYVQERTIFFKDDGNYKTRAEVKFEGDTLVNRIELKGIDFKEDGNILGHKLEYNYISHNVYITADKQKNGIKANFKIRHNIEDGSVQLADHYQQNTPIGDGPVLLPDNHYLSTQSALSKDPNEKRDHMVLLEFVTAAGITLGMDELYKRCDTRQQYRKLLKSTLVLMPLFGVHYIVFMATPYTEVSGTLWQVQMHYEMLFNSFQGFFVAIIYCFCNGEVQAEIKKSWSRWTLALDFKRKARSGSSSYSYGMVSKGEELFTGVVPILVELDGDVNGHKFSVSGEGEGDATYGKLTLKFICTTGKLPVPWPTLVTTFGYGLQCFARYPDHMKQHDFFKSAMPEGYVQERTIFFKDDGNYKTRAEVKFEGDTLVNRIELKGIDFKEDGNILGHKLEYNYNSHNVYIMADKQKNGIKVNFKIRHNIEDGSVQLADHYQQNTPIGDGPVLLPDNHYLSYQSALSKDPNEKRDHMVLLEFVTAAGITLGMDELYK

SVSEIQLMHNLGKHLNSMERVEWLRKKLQDVHNF (peptide, UniProt P01270 32-65, looked up) [parathyroid hormone (PTH)]: the Ki in assay [1] worked out at 15.5 nM. In addition, the “EC50 of signalling to adenylyl cyclase” value in assay [2] stood at 12.8 nM.
